Laboratory results taken from patent US20250092146A1, “ANTI-CCR8 ANTIBODIES, CONJUGATES, AND USES THEREOF” (Abilita Bio, Inc., priority 2023, published 2025).
Where a chain is given by its changes, count along the chain named.

Columns and labels:
hCCR8 [1] = molecular target: T1, hCCR8 (Homo sapiens, UniProt P51685); assay: Flow cytometry binding of VHH-Fc fusion antibodies to hCCR8 on stably transfected HEK293 cells; settings: for binding to hCCR8 expressed on HEK293 cells (in words): as Fc fusion antibodies
T1 construct: expressed in transfected cells
Method: VHH-Fc fusion antibodies were evaluated for their ability to bind to hCCR8 on stably transfected HEK293 cells by means of flow cytometry. Cells were incubated with different concentrations of the bivalent VHH-Fc fusions for 60 minutes at 4° C., followed by two washes with FACS buffer, followed by 30 minutes incubation at 4° C. with the Zenon R-Phycoerythrin Anti-human IgG (ThermoFisher Scientific, #Z-25455), and two additional washing steps. Data were plotted and fit using GraphPad Prism software. EC50 and Bmax values individual antibodies were calculated from the resulting dose-response curves. Bivalent VHH-Fc fusions (Seq ID NOs: 31, 33, and 87-103) of 19 different VHH domains (SEQ ID NOs: 27, 28, and 70-86) were tested for cell binding and results are shown in Table 7. […]
(§1) VHH-Fc fusion DNA constructs were then generated comprising encoding humanized VHH sequences (SEQ ID NOs: 106-111) fused in frame to the human IgG1 (SEQ ID NO: 34) directly to the short hinge sequence in the pFuse expression vector, and were expressed, purified and analyzed for binding to HEK293 cells expressing human CCR8 as in Example 5. Binding curves for VHH-Fc antibodies comprised of parental VHH-1 and the humanized VHH derivatives VHH-1.2-Fc and VHH-1.3-Fc are shown in FIG. 9A. Binding curves for VHH-Fc antibodies comprised of parental VHH-2 and the humanized VHH derivatives VHH-2-Fc, VHH-2.2-Fc and VHH-2.3-Fc, are shown in FIG. 9B. Cell binding EC50 values, normalized Bmax (relative to respective parental clone) data and humanizing mutations are shown in Table 10 below.
Approaches such as in vitro affinity maturation and rational mutagenesis can be performed to regain binding affinity and/or stability lost through humanization. In vitro affinity maturation generally involves building and amino acid substitution library where amino acid positions are varied across the CDRs and/or framework at a defined set of positions using sets of amino acids chosen to introduce new chemical diversity. The paratope residues within the CDR regions are of course key to antigen binding and care must be taken not to disrupt important structures while attempting to evolve improve antibody behavior. One approach to identify positions that are important to the maintenance of binding properties is to perform paratope mapping using single scanning alanine substitutions across antibody CDR regions. In this approach, residues that are critical to the maintenance of antibody binding to the antigen can be identified and at the same time permissive sites can be identified where it may be possible to make substitutions of other amino acids desirable for subsequent affinity maturation library construction. Site directed mutagenesis was used to make single alanine substitutions at each residue in the CDRs of VHH-1 (SEQ ID NO: 27) and VHH-2 (SEQ ID NO: 28). Changes in VHH-1 CDR amino acids to alanine are indicated in Table 11 (SEQ ID NOs: 112-137) and for VHH-2 CDRs (SEQ ID NO: 138-162) in Table 12. Mutation positions and residue changes to alanine with respect to the in the parental VHH sequences are referenced by their IMGT position. VHH domains containing the indicated modified CDR-1, CDR-2 or CDR-3 domains were used to construct Fc fusions by direct grafting to the short hinge of the human Fc domain (SEQ ID NO: 34). VHH-Fc constructs were expressed, purified and analyzed for binding to HEK293 cells expressing hCCR8 and the results are reported in Table 11 and Table 12. EC50 values are reported for each Fc fusion antibody containing a modified CDR, along with its respective Bmax value normalized to the to the matched wild type VHH-1-Fc or VHH-2-Fc fusion antibody.

[2] = Production and purification of humanized VHH-Fc from cells; settings: most humanized variants
From the text: as §1
Humanization within the framework regions of VHH and other antibodies is known to often have negative impacts of on protein properties such as destabilization of the VHH fold or loss of binding affinity. This is most common when humanized versions of antibodies are constructed by “CDR grafting”, where the individual CDRs are transferred directly to a fully human framework.

[3] = molecular target: T2, HuT-78 cells that naturally express human CCR8 (Homo sapiens, UniProt P51685); assay: Flow cytometry binding of yeast-display optimized VHH-Fc antibodies to HuT-78 cells; settings: Table 13; for EC50: clones tested as VHH-Fc fusions (human IgG1 Fc), HuT-78 cells; for Normalized Bmax (%): normalized to VHH-1 or VHH-2 depending on clone family
T2 construct: HuT-78 cells that naturally express human CCR8 were used as target cells; endogenous in cells; host or cells: HuT-78
From the text: Top VHH sequences were chosen from the FACS sorted populations based on an analysis of improved binding performance relative to the parental sequences and evidence of sequence enrichment by NGS. Candidate VHH were then cloned as VHH-Fc fusions to the short hinge of the IgG1 Fc domain (SEQ ID NO: 34), expressed in HEK293 cells as described earlier and purified for binding evaluation. Bmax values are shown as normalized to VHH-1 or VHH-2 depending on the clone family. […] Mutations are referenced by position according to the IMGT definition.

[4] = system: MC38 mouse colon cancer cells; assay: MC38 tumor growth inhibition study in human CCR8 transgenic mice; assay type: in vivo; settings: 30 mg/kg IV 3 times per week, Day 16, p=0.0169
Method: Human CCR8 transgenic (hCCR8-tg) mice (#110096, Biocytogen, China) were inoculated with MC38 mouse colon cancer cells subcutaneously. After the average tumor size reached approximately 150 mm3, mice were randomized based on tumor size and treatment was initiated. Mice were treated IV 3 times per week with 30 mg/kg VHH-1-mFc (SEQ ID NO: 239) or an IgG2a Fc control (recombinant IgG2a Fc, #BE0097, BioXcell). Tumor volume was measured twice per week using a caliper, and the volume expressed in mm3 using the formula: V (mm3)=(a×b2)/2 where a and b were the long and short diameters of the tumor, respectively. The tumor size was then used for calculations of tumor growth inhibition (T/C) values (where T was the treatment group and C is the control group). The T/C value (in percent) is an indication of antitumor effectiveness; T and C were the mean volume of the treated and control groups, respectively, on a given day. […] To determine whether group treated with various test articles had statistically significant anti-tumor effects compared to the mouse IgG2a Fc control, the MC38 tumor volumes were analyzed by one-way ANOVA and multiple comparison test at day 16. […] In addition, the tumor growth inhibition (TGI) was also calculated during the study until Day 16. On Day 16, the TGIs for VHH-1-mFc were 50.3%, (p=0.0169).

hCCR8 [5] = molecular target: T1, hCCR8; assay: Flow cytometry binding of purified VHHs to HEK293 cells expressing hCCR8; settings: monovalent VHH, FIG. 1
Method: Recombinant cells expressing hCCR8 were resuspended to a final concentration of 1.0×10^6 cells/ml in FACS buffer. Surface expression of hCCR8 on transiently transfected HEK293 cells was confirmed by flow cytometry of HEK293 cells stained with PE anti-hCCR8 (Clone 433H, BD Biosciences, #566897) antibody. Dilutions of purified VHHs were incubated with cells for 60 min. Individual samples were distributed into 96-well v-bottom plates and incubated for one hour at 4° C. Bound VHH were then detected with an anti-VHH specific antibody (Goat anti-alpaca VHH, Jackson ImmunoResearch, #128-605-232). […] Binding was determined in parallel on HEK293 cells stably expressing the closely related receptor hCCR7 (SEQ ID NO: 41), as control for binding specificity.

T2 sequence (P51685 whole entry, the tested form may be a part): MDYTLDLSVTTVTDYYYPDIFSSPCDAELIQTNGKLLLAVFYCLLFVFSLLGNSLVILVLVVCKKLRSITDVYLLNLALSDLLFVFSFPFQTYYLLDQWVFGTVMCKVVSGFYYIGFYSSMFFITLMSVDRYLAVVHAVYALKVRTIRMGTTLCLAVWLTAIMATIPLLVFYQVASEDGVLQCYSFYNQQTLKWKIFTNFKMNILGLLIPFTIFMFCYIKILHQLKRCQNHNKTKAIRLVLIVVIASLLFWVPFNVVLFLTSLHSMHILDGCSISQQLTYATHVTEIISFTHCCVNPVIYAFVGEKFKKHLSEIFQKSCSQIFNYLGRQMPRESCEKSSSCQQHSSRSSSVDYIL
T1 sequence (P51685 whole entry, the tested form may be a part): as above

B1: VHH-2.2: humanized VHH-2, version 2, SEQ ID NO: 110 (protein)
VHH: EVQLVESGGGLVQPGGSLRLSCAVSGSTSTINRFAWYRQAPGKGLEWVAATSSRTSPNYADSVKGRFTFSRDNSKNTVYLQMNSLRAEDTAVYYCQARMAMGSSQVVYWGQGTTVTVSS
binding to hCCR8 expressed on HEK293 cells (in words) (hCCR8 [1]): maintained their hCCR8 binding properties

B2: VHH-2.1: humanized VHH-2, version 1, SEQ ID NO: 109 (protein)
VHH: B1 VHH with V24A, Y37V, A49S, F69I, V78L, Q96A, A97K
stability / producibility after humanization [2]: could not be produced and purified from cells

B3: VHH-2.3: humanized VHH-2, version 3, SEQ ID NO: 111; Table 13 tested as Fc fusion (protein)
VHH: B1 VHH with L45R, W47L
binding to hCCR8 expressed on HEK293 cells (in words) (hCCR8 [1]): maintained their hCCR8 binding properties | EC50 [3]: 1.19 nM | Normalized Bmax (%) [3]: 88.8%

B4: VHH-1-mFc: VHH-1 fused to hinge of mouse IgG2a Fc, SEQ ID NO: 239 (protein)
chain: QVQLQESGGGLVQAGGSLRLSCVASGSTSSIRRIGWYRQAPGKQRELVARFSSGGGTNYADFVKGRFTISGDNAKNTMYLQMNSLKPEDTAVYYCSARRLLGTSRVDYWGQGTQVTVSSEPRGPTIKPCPPCKCPAPNLLGGPSVFIFPPKIKDVLMISLSPIVTCVVVDVSEDDPDVQISWFVNNVEVHTAQTQTHREDYNSTLRVVSALPIQHQDWMSGKEFKCKVNNKDLPAPIERTISKPKGSVRAPQVYVLPPPEEEMTKKQVTLTCMVTDFMPEDIYVEWTNNGKTELNYKNTEPVLDSDGSYFMYSKLRVEKKNWVERNSYSCSVVHEGLHNHHTTKSFSRTPGK
fold smaller tumor volume than isotype control [4]: 1.8 fold | tumor growth inhibition (TGI) [4]: 50.3%

B5: VHH-1.2: humanized VHH-1, version 2, SEQ ID NO: 107 (protein)
VHH: EVQLVESGGGLVQPGGSLRLSCAASGSTSSIRRIGWYRQAPGKGLEWVARFSSGGGTNYADSVKGRFTISGDNSKNTMYLQMNSLRAEDTAVYYCSARRLLGTSRVDYWGQGTTVTVSS
binding to hCCR8 expressed on HEK293 cells (in words) (hCCR8 [1]): maintained their hCCR8 binding properties

B6: VHH-1.3: humanized VHH-1, version 3, SEQ ID NO: 108; Table 13 tested as Fc fusion (protein)
VHH: B5 VHH with L45R, W47L
binding to hCCR8 expressed on HEK293 cells (in words) (hCCR8 [1]): maintained their hCCR8 binding properties | EC50 [3]: 5.46 nM | Normalized Bmax (%) [3]: 88.6%

B7: VHH-1.1: humanized VHH-1, version 1, SEQ ID NO: 106 (protein)
VHH: B5 VHH with Y37V, A49S, G71R, M78L, S96A, A97K
stability / producibility after humanization [2]: could not be produced and purified from cells

B8: VHH-3: llama anti-hCCR8 VHH, SEQ ID NO: 29 (protein)
VHH: QVQLQESGGGLVQAGGSLRLSCVASGSTSSIRRIGWYRQAPGKQRELVARFSSGGGTNYADFVKGRFTISGDNAKNTMYLQMNSLKPEDTAVYYCGARRLLGTSRVDYWGQGTQVTVSS
binding specificity hCCR8 vs human CCR7 (hCCR8 [5]): specific binding to hCCR8 overexpressed in HEK293 cells and not to human CCR7

B9: VHH-2: llama anti-hCCR8 VHH, SEQ ID NO: 28; in Tables 12 and 13 tested as human IgG1 Fc fusion (protein)
VHH: QVQLQESGGGLVQAGGSLRLTCAVSGSTSTINRFAWYRQAPGKQRELVAATSSRTSPNYADSVKGRFRFSRDNARSAVYLQMDNLRPEDTAVYFCQARMAMGSSQVVYWGLGTQVTVSS
EC50 (hCCR8 [1]; Table 12, VHH-2 CDR alanine mutants as human Fc fusions, HEK293 hCCR8): 1.3 nM | % Bmax (hCCR8 [1]; Table 12, normalized to wild type VHH-2-Fc): 100% | EC50 [3]: 0.24 nM | Normalized Bmax (%) [3]: 100.0%
